From paper PMC4629423

What was measured:
Test in all cases: two-hybrid
[1] = biological target: SARS-CoV accessory protein 8a (yeast two-hybrid fusions) (SARS-CoV Tor2 isolate)
[2] = biological target: SARS-CoV accessory protein 9b (yeast two-hybrid fusions) (SARS-CoV Tor2 isolate)
[3] = biological target: SARS-CoV accessory protein ORF14 (yeast two-hybrid fusions) (SARS-CoV Tor2 isolate)

## SARS-CoV accessory protein 9b (yeast two-hybrid fusions) (natural protein)
[1]
  α-Galactosidase: 1.17
  β-Galactosidase: 6.91
[2]
  α-Galactosidase: 2.52
  β-Galactosidase: 8.8

## SARS-CoV accessory protein ORF14 (yeast two-hybrid fusions) (natural protein)
[3]
  α-Galactosidase: 1.84
  β-Galactosidase: 6.03
